This note sets out measurements from patent US9081017 (CAMBRIDGE ENTERPRISE, dated 2015).

The test addresses T1, TRAF2 (mouse, endogenous) (mouse, UniProt P39429 2-501).
T1 construct: Endogenous protein; also called TNF-receptor associated factor 2
T1 sequence (looked up): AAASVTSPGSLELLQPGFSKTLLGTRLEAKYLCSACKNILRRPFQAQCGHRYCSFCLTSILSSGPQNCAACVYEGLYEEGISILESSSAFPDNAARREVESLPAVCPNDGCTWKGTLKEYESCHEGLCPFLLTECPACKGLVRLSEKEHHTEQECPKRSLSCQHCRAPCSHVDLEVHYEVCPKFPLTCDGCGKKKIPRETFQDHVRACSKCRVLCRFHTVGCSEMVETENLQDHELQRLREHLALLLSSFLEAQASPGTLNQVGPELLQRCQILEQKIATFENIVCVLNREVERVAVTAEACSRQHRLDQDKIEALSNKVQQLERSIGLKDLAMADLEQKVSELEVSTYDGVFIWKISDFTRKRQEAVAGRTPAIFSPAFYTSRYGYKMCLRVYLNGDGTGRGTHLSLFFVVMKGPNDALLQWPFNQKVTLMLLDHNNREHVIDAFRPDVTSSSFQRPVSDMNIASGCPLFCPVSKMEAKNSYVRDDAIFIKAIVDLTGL
The test can be described thus: co-immunoprecipitation from ischemic hindlimb muscle of C57BL/6 mice.

B1: TNFR2 (mouse, endogenous in hindlimb muscle of C57BL/6 mice) (receptor, UniProt P25119 23-474, looked up)
chain: VPAQVVLTPYKPEPGYECQISQEYYDRKAQMCCAKCPPGQYVKHFCNKTSDTVCADCEASMYTQVWNQFRTCLSCSSSCTTDQVEIRACTKQQNRVCACEAGRYCALKTHSGSCRQCMRLSKCGPGFGVASSRAPNGNVLCKACAPGTFSDTTSSTDVCRPHRICSILAIPGNASTDAVCAPESPTLSAIPRTLYVSQPEPTRSQPLDQEPGPSQTPSILTSLGSTPIIEQSTKGGISLPIGLIVGVTSLGLLMLGLVNCIILVQRKKKPSCLQRDAKVPHVPDEKSQDAVGLEQQHLLTTAPSSSSSSLESSASAGDRRAPPGGHPQARVMAEAQGFQEARASSRISDSSHGSHGTHVNVTCIVNVCSSSDHSSQCSSQASATVGDPDAKPSASPKDEQVPFSQEECPSQSPCETTETLQSHEKPLPLGVPDMGMKPSQAGWFDQIAVKVA
notes: Endogenous protein immunoprecipitated from muscle tissue; also called tumor necrosis factor receptor 2
Turning to B1, the binding result is “binds”.
